Molecular target: T1, HiNF-P (enriched chromatographic fraction, HeLa) (Homo sapiens, UniProt Q9BQA5 Q9BQA5:1-517)
T1 sequence: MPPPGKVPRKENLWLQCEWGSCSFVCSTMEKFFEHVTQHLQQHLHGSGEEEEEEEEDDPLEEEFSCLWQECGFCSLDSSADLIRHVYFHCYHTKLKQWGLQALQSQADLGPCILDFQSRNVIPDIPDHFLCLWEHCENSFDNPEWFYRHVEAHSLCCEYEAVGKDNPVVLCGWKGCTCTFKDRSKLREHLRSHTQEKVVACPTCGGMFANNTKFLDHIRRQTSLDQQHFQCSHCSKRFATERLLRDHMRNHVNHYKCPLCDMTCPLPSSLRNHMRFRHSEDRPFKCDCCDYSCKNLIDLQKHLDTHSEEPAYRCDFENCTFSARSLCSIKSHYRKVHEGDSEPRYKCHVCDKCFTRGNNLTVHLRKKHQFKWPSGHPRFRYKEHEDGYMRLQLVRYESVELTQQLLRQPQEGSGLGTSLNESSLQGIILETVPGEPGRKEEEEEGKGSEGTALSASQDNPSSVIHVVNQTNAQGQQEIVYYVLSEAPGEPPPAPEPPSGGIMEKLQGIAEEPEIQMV
Experiment: UV cross-linking, 65 kDa; 100 uM Zn2+ and Mg2+
Conditions: label: 32P-dCTP
Protocol: FIG. 6B is a representation of an autoradiogram showing UV cross-linking of HiNF-P/Site II complexes. Oligonucleotides spanning wild type (WT) and mutant (Pmut) Site II sequences were labeled with BrdUTP and ³²P-dCTP then incubated with a fraction (7.5 μl; 0.4M KCl) containing enriched HiNF-P binding activity. The reaction mixture was exposed to UV light (305 nm) for 60 minutes and then digested with DNase I and MNase. Cross-linked, labeled proteins were analyzed using 10% SDS-PAGE and subjected to autoradiography. Molecular weight makers are shown at the left. The arrow indicates the 65 kDa HiNF-P-DNA complex.
Ultraviolet cross-linking experiments were performed by adapting a method described in Ausubel, F. M. et al. (Current Protocols in Molecular Biology. Greene and Wiley, New York, 1989). A radiolabeled and BrdU-substituted probe was prepared by incubating 20 pmol of partially double-stranded HiNF-P-specific oligonucleotide (top strand: 5′-CGC TTT CGG-3′, SEQ ID NO:13; Bottom strand: 5′-CAAGAGTATCGGACCAGATTGAAAACCGAAAGCG-3′, SEQ ID NO:14) with 1 μl of 50× dNTP/BrdUTP solution (containing 50 μM DATP, 50 μM dGTP, 37.5 μM dTTP and 12.5 μM BrdUTP), 150 μCi α-³²P-dCTP and 1 μl of a solution containing 5 mM DTT and 1 μg/μl BSA, in a total reaction volume of 25 μl. […] Following nuclease digestion, the products were analyzed by 10% SDS-PAGE.

B1: BrdU-substituted Site II probe (dsDNA)
DNA 1: CAAGAGTATCGGACCAGATTGAAAACCGAAAGCG
DNA 2: CGCTTTCGGTTTTCAATCTGGTCCGATACTCTTG
modifications: partial BrdU substitution for T in filled-in strand
binding result: binds
